Where no end group is shown, it is not given here. [ ]: non-standard residue; d: D form. pS = N[C@@H](COP(=O)(O)O)C(=O)O

The source of these data is patent US20030207290A1 (MESO SCALE TECHNOLOGIES, published 2003).

The chains are these.
T1: EGFR-pY992 phosphopeptide, DADE(p)YLIPQQGFFSSPSTSC (phosphotyrosine at (p)Y (residue 5 of the printed peptide; EGFR Tyr992))
T1 construct: also called EGFR-pTyr992
T1 peptide: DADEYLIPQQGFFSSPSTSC

B1: βTRCP2 (EST clone IMAGE 4237375), in vitro translated, biotin-labelled (other, human, UniProt Q9UKB1 1-542, looked up)
chain: MEPDSVIEDKTIELMCSVPRSLWLGCANLVESMCALSCLQSMPSVRCLQISNGTSSVIVSRKRPSEGNYQKEKDLCIKYFDQWSESDQVEFVEHLISRMCHYQHGHINSYLKPMLQRDFITALPEQGLDHIAENILSYLDARSLCAAELVCKEWQRVISEGMLWKKLIERMVRTDPLWKGLSERRGWDQYLFKNRPTDGPPNSFYRSLYPKIIQDIETIESNWRCGRHNLQRIQCRSENSKGVYCLQYDDEKIISGLRDNSIKIWDKTSLECLKVLTGHTGSVLCLQYDERVIVTGSSDSTVRVWDVNTGEVLNTLIHHNEAVLHLRFSNGLMVTCSKDRSIAVWDMASATDITLRRVLVGHRAAVNVVDFDDKYIVSASGDRTIKVWSTSTCEFVRTLNGHKRGIACLQYRDRLVVSGSSDNTIRLWDIECGACLRVLEGHEELVRCIRFDNKRIVSGAYDGKIKVWDLQAALDPRAPASTLCLRTLVEHSGRVFRLQFDEFQIISSSHDDTILIWDFLNVPPSAQNETRSPSRTYTYISR
modifications: biotin on some lysine residues (incorporated at random from biotin-Lys-tRNA)
notes: Product of a coupled transcription/translation reaction, used without purification; also called βTRCP [c]; bTRCP2
B2: βTRCP1 (EST clone IMAGE 3491843), in vitro translated, biotin-labelled (other, human, UniProt Q9Y297 1-605, looked up)
chain: MDPAEAVLQEKALKFMCSMPRSLWLGCSSLADSMPSLRCLYNPGTGALTAFQNSSEREDCNNGEPPRKIIPEKNSLRQTYNSCARLCLNQETVCLASTAMKTENCVAKTKLANGTSSMIVPKQRKLSASYEKEKELCVKYFEQWSESDQVEFVEHLISQMCHYQHGHINSYLKPMLQRDFITALPARGLDHIAENILSYLDAKSLCAAELVCKEWYRVTSDGMLWKKLIERMVRTDSLWRGLAERRGWGQYLFKNKPPDGNAPPNSFYRALYPKIIQDIETIESNWRCGRHSLQRIHCRSETSKGVYCLQYDDQKIVSGLRDNTIKIWDKNTLECKRILTGHTGSVLCLQYDERVIITGSSDSTVRVWDVNTGEMLNTLIHHCEAVLHLRFNNGMMVTCSKDRSIAVWDMASPTDITLRRVLVGHRAAVNVVDFDDKYIVSASGDRTIKVWNTSTCEFVRTLNGHKRGIACLQYRDRLVVSGSSDNTIRLWDIECGACLRVLEGHEELVRCIRFDNKRIVSGAYDGKIKVWDLVAALDPRAPAGTLCLRTLVEHSGRVFRLQFDEFQIVSSSHDDTILIWDFLNDPAAQAEPPRSPSRTYTYISR
modifications: biotin on some lysine residues (incorporated at random from biotin-Lys-tRNA)
notes: Product of a coupled transcription/translation reaction, used without purification; the text speaks of the genes in the human genome and of full-length cDNAs; also called βTRCP [c]; bTRCP1
B3: Shc1 (EST clone IMAGE 3907115), in vitro translated, biotin-labelled (other, UniProt P29353-2 1-473, looked up)
chain: MNKLSGGGGRRTRVEGGQLGGEEWTRHGSFVNKPTRGWLHPNDKVMGPGVSYLVRYMGCVEVLQSMRALDFNTRTQVTREAISLVCEAVPGAKGATRRRKPCSRPLSSILGRSNLKFAGMPITLTVSTSSLNLMAADCKQIIANHHMQSISFASGGDPDTAEYVAYVAKDPVNQRACHILECPEGLAQDVISTIGQAFELRFKQYLRNPPKLVTPHDRMAGFDGSAWDEEEEEPPDHQYYNDFPGKEPPLGGVVDMRLREGAAPGAARPTAPNAQTPSHLGATLPVGQPVGGDPEVRKQMPPPPPCPGRELFDDPSYVNVQNLDKARQAVGGAGPPNPAINGSAPRDLFDMKPFEDALRVPPPPQSVSMAEQLRGEPWFHGKLSRREAEALLQLNGDFLVRESTTTPGQYVLTGLQSGQPKHLLLVDPEGVVRTKDHRFESVSHLISYHMDNHLPIISAGSELCLQQPVERKL
modifications: biotin on some lysine residues (incorporated at random from biotin-Lys-tRNA)
B4: Phospholipase C gamma 1 (PLCγ) (EST clone IMAGE 4419252), in vitro translated, biotin-labelled (enzyme, UniProt P19174 1-1290, looked up)
chain: MAGAASPCANGCGPGAPSDAEVLHLCRSLEVGTVMTLFYSKKSQRPERKTFQVKLETRQITWSRGADKIEGAIDIREIKEIRPGKTSRDFDRYQEDPAFRPDQSHCFVILYGMEFRLKTLSLQATSEDEVNMWIKGLTWLMEDTLQAPTPLQIERWLRKQFYSVDRNREDRISAKDLKNMLSQVNYRVPNMRFLRERLTDLEQRSGDITYGQFAQLYRSLMYSAQKTMDLPFLEASTLRAGERPELCRVSLPEFQQFLLDYQGELWAVDRLQVQEFMLSFLRDPLREIEEPYFFLDEFVTFLFSKENSVWNSQLDAVCPDTMNNPLSHYWISSSHNTYLTGDQFSSESSLEAYARCLRMGCRCIELDCWDGPDGMPVIYHGHTLTTKIKFSDVLHTIKEHAFVASEYPVILSIEDHCSIAQQRNMAQYFKKVLGDTLLTKPVEISADGLPSPNQLKRKILIKHKKLAEGSAYEEVPTSMMYSENDISNSIKNGILYLEDPVNHEWYPHYFVLTSSKIYYSEETSSDQGNEDEEEPKEVSSSTELHSNEKWFHGKLGAGRDGRHIAERLLTEYCIETGAPDGSFLVRESETFVGDYTLSFWRNGKVQHCRIHSRQDAGTPKFFLTDNLVFDSLYDLITHYQQVPLRCNEFEMRLSEPVPQTNAHESKEWYHASLTRAQAEHMLMRVPRDGAFLVRKRNEPNSYAISFRAEGKIKHCRVQQEGQTVMLGNSEFDSLVDLISYYEKHPLYRKMKLRYPINEEALEKIGTAEPDYGALYEGRNPGFYVEANPMPTFKCAVKALFDYKAQREDELTFIKSAIIQNVEKQEGGWWRGDYGGKKQLWFPSNYVEEMVNPVALEPEREHLDENSPLGDLLRGVLDVPACQIAIRPEGKNNRLFVFSISMASVAHWSLDVAADSQEELQDWVKKIREVAQTADARLTEGKIMERRKKIALELSELVVYCRPVPFDEEKIGTERACYRDMSSFPETKAEKYVNKAKGKKFLQYNRLQLSRIYPKGQRLDSSNYDPLPMWICGSQLVALNFQTPDKPMQMNQALFMTGRHCGYVLQPSTMRDEAFDPFDKSSLRGLEPCAISIEVLGARHLPKNGRGIVCPFVEIEVAGAEYDSTKQKTEFVVDNGLNPVWPAKPFHFQISNPEFAFLRFVVYEEDMFSDQNFLAQATFPVKGLKTGYRAVPLKNNYSEDLELASLLIKIDIFPAKENGDLSPFSGTSLRERGSDASGQLFHGRAREGSFESRYQQPFEDFRISQEHLADHFDSRERRAPRRTRVNGDNRL
modifications: biotin on some lysine residues (incorporated at random from biotin-Lys-tRNA)
notes: also called PLCg
B5: IkBa phosphopeptide (IkBa-24pp), LKKERLLDDRHD(p)SGLD(p)SMKDEEYC (peptide)
peptide: LKKERLLDDRHD[pS]GLD[pS]MKDEEYC
modifications: not fully specified (residue 24); also: C-terminal Cys coupled to maleimide-activated BSA
notes: Chemically synthesized; the peptide-BSA conjugate was deposited on the electrode; also called IkBa peptide; IkBa-24ppC

Test [1] deals with T1, EGFR-pY992 phosphopeptide, …. Nature of the test: ECL 4-spot multi-array binding assay: peptide-BSA spot, biotinylated TnT protein, Sulfo-TAG streptavidin.
For test [2] the target is unchanged. Description: ECL 7-spot plate screen, peptide-BSA spot, biotinylated TnT protein, Ru-streptavidin; signal normalized in two steps.
Test [3] deals with B5. Nature of the test: ECL plate binding assay: peptide-BSA on electrode, biotinylated TnT protein, Sulfo-TAG streptavidin. As to the method:
(§1) Also included were three other non specific EST clones as controls (Incyte, Palo alto, Calif.). […] Proteins were transferred into wells of the peptide-coated and BSA-blocked IPR plates. Sulfo-TAG labeled streptavidin (50 to 100 ng/well) was added to each well as the detection agent. […] The ECL signals were measured using an imaging plate reader (IPR).

For test [4], the target named is T2, c-Myc phosphopeptide (Myc-p58Tp62S), …(p)TPPL(p)SPSRRSGL (phosphothreonine and phosphoserine in P(p)TPPL(p)S (residues 15 and 19 of the printed peptide)).
T2 construct: Chemically synthesized; control peptide; also called c-Myc peptide
T2 sequence (peptide, as listed by the source): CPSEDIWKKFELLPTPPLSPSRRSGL
Described as above. As to the method:
as §1

Test [5] deals with B5. Description: ECL 4-spot multi-array binding assay: peptide-BSA spot, biotinylated TnT protein, Sulfo-TAG streptavidin.
Test [6] deals with B4. Description: ECL plate binding assay, peptide-BSA on electrode.
In test [7] the target is B3. Nature of the test: ECL plate binding assay, peptide-BSA on electrode.

Molecule B1 yielded an ECL signal in test [1] of 60 ECL signal. In addition, in test [2], the “normalized ECL signal” value turned out to be 1.
For the molecule B2, the ECL signal in test [1] came to 54 ECL signal. Also, in test [2], the “normalized ECL signal” value was 1.
As for B3, the “Average ECL signal” value was 368 ECL signal in test [3] and 341 ECL signal in test [4].
For B4, the “Average ECL signal” value was found to be 341 ECL signal in test [3] and 316 ECL signal in test [4]. The ECL signal in test [5] worked out at 26 ECL signal.
For B5, the binding result in test [6] and in test [7] was “no binding” each time.
